Data as given in the supplement of paper PMC9112550, “Optimization of the antimicrobial peptide Bac7 by deep mutational scanning” (BMC Biology, 2022).

Each sequence was assayed on Escherichia coli TOP10 (assay: shrunken log2 fold change of peptide-encoding DNA abundance (4.5 h post-induction vs induction); higher = less antimicrobial activity (less host growth inhibition)). Conditions: time post-induction: 4.5 h; library: site-saturation at positions 5, 18, 19, 20.
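Also: peptides expressed intracellularly from a pBAD plasmid library in pooled LB shake-flask culture, induced with 0.3% L-arabinose, DNA abundance read by NGS, three biological replicates, DESeq2 with apeglm shrinkage.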

Row | Sequence | shrunken log2 fold change
1 | RRIRFRPPRLPRPRPRPMHKPRP | -0.263
2 | RRIRVRPPRLPRPRPRPIAKPRP | 0.391
3 | RRIRHRPPRLPRPRPRPMKDPRP | -0.778
4 | RRIRCRPPRLPRPRPRPHRTPRP | -0.209
5 | RRIRLRPPRLPRPRPRPAFAPRP | 0.368
6 | RRIRVRPPRLPRPRPRPQPCPRP | -0.0059
7 | RRIRWRPPRLPRPRPRPYADPRP | -0.0623
8 | RRIRMRPPRLPRPRPRPDTRPRP | -0.0141
9 | RRIRARPPRLPRPRPRPEHCPRP | 0.0263
10 | RRIRKRPPRLPRPRPRPDNEPRP | 0.665
11 | RRIRCRPPRLPRPRPRPEEAPRP | 0.642
12 | RRIRIRPPRLPRPRPRPKPYPRP | -0.24
13 | RRIRMRPPRLPRPRPRPLRKPRP | 1.54
14 | RRIRERPPRLPRPRPRPQSDPRP | -0.134
15 | RRIRHRPPRLPRPRPRPLVYPRP | -0.0877
16 | RRIRDRPPRLPRPRPRPQCDPRP | -0.0921
17 | RRIRQRPPRLPRPRPRPDTWPRP | -0.197
18 | RRIRDRPPRLPRPRPRPSFIPRP | -0.572
19 | RRIRNRPPRLPRPRPRPNGCPRP | -0.0605
20 | RRIRRRPPRLPRPRPRPFEDPRP | -0.0157
21 | RRIRYRPPRLPRPRPRPQCNPRP | -0.269
22 | RRIRNRPPRLPRPRPRPCKDPRP | -0.00844
23 | RRIRFRPPRLPRPRPRPYLEPRP | -0.0738
24 | RRIRNRPPRLPRPRPRPPPQPRP | 0.931
25 | RRIRFRPPRLPRPRPRPAPTPRP | 0.912

Row | Sequence | shrunken log2 fold change
26 | RRIRDRPPRLPRPRPRPLWVPRP | -0.0158
27 | RRIRIRPPRLPRPRPRPAHSPRP | -0.0596
28 | RRIRDRPPRLPRPRPRPPCAPRP | 0.371
29 | RRIRRRPPRLPRPRPRPVPMPRP | 0.452
30 | RRIRHRPPRLPRPRPRPEVTPRP | 0.05
31 | RRIRDRPPRLPRPRPRPGDQPRP | 0.282
32 | RRIRFRPPRLPRPRPRPMRHPRP | 0.0162
33 | RRIRVRPPRLPRPRPRPDLIPRP | 0.0639
34 | RRIRKRPPRLPRPRPRPNGQPRP | 0.203
35 | RRIRHRPPRLPRPRPRPVINPRP | -0.242
36 | RRIRCRPPRLPRPRPRPCNHPRP | -0.227
37 | RRIRHRPPRLPRPRPRPLSWPRP | 0.146
38 | RRIRPRPPRLPRPRPRPEPKPRP | 2.44
39 | RRIRERPPRLPRPRPRPPDLPRP | 0.16
40 | RRIRQRPPRLPRPRPRPDHMPRP | 0.0119
41 | RRIRKRPPRLPRPRPRPDYEPRP | -0.164
42 | RRIRKRPPRLPRPRPRPWCIPRP | -0.103
43 | RRIRYRPPRLPRPRPRPTTSPRP | -0.382
44 | RRIRPRPPRLPRPRPRPHYAPRP | -0.15
45 | RRIRGRPPRLPRPRPRPTVSPRP | 0.731
46 | RRIRDRPPRLPRPRPRPPCYPRP | -0.0706
47 | RRIRVRPPRLPRPRPRPLWHPRP | -0.0301
48 | RRIRPRPPRLPRPRPRPNPYPRP | -0.465
49 | RRIRMRPPRLPRPRPRPPHLPRP | 0.389
50 | RRIRTRPPRLPRPRPRPTRQPRP | 0.112

Row | Sequence | shrunken log2 fold change
51 | RRIRRRPPRLPRPRPRPIPYPRP | -0.16
52 | RRIRNRPPRLPRPRPRPKTDPRP | -0.206
53 | RRIRWRPPRLPRPRPRPIIHPRP | -0.463
54 | RRIRFRPPRLPRPRPRPIQQPRP | 0.056
55 | RRIRTRPPRLPRPRPRPLGCPRP | 0.0809
56 | RRIRDRPPRLPRPRPRPRMRPRP | 0.984
57 | RRIRFRPPRLPRPRPRPNFPPRP | -0.254
58 | RRIRDRPPRLPRPRPRPVDSPRP | -0.0208
59 | RRIRNRPPRLPRPRPRPICWPRP | -0.0674
60 | RRIRMRPPRLPRPRPRPTENPRP | 0.772
61 | RRIRRRPPRLPRPRPRPHMKPRP | -0.654
62 | RRIRSRPPRLPRPRPRPVQYPRP | -0.00908
63 | RRIRIRPPRLPRPRPRPYRCPRP | -0.0728
64 | RRIRCRPPRLPRPRPRPEEEPRP | 0.375
65 | RRIRNRPPRLPRPRPRPAMMPRP | 0.0394
66 | RRIRGRPPRLPRPRPRPMGDPRP | 0.783
67 | RRIRDRPPRLPRPRPRPGCHPRP | 0.15
68 | RRIRNRPPRLPRPRPRPDKQPRP | 0.00349
69 | RRIRLRPPRLPRPRPRPVQKPRP | 0.113
70 | RRIRYRPPRLPRPRPRPSIGPRP | -0.0122
71 | RRIRQRPPRLPRPRPRPCTKPRP | 0.00259
72 | RRIRHRPPRLPRPRPRPLTTPRP | -0.142
73 | RRIRTRPPRLPRPRPRPVFDPRP | -0.226
74 | RRIRARPPRLPRPRPRPLKAPRP | 0.16
75 | RRIRKRPPRLPRPRPRPCMFPRP | -0.167

Row | Sequence | shrunken log2 fold change
76 | RRIRKRPPRLPRPRPRPFRVPRP | -0.035
77 | RRIRFRPPRLPRPRPRPPWVPRP | 0.401
78 | RRIRIRPPRLPRPRPRPYYNPRP | -0.679
79 | RRIRKRPPRLPRPRPRPANRPRP | 0.167
80 | RRIRMRPPRLPRPRPRPNIIPRP | 0.23
81 | RRIRCRPPRLPRPRPRPCHHPRP | -0.332
82 | RRIRTRPPRLPRPRPRPGKIPRP | 0.0168
83 | RRIRNRPPRLPRPRPRPDYSPRP | -0.0548
84 | RRIRVRPPRLPRPRPRPPNPPRP | 0.379
85 | RRIRGRPPRLPRPRPRPKEYPRP | -0.102
86 | RRIRVRPPRLPRPRPRPIFYPRP | -0.378
87 | RRIRDRPPRLPRPRPRPAWGPRP | 0.769
88 | RRIRQRPPRLPRPRPRPPQYPRP | 0.198
89 | RRIRDRPPRLPRPRPRPHRKPRP | 0.00895
90 | RRIRNRPPRLPRPRPRPQDAPRP | -0.131
91 | RRIRTRPPRLPRPRPRPFFSPRP | -0.135
92 | RRIRWRPPRLPRPRPRPSRQPRP | 0.399
93 | RRIRRRPPRLPRPRPRPVMIPRP | 0.224
94 | RRIRVRPPRLPRPRPRPFFVPRP | -0.0592
95 | RRIRKRPPRLPRPRPRPLSQPRP | 0.028
96 | RRIRRRPPRLPRPRPRPKMQPRP | 0.336
97 | RRIRNRPPRLPRPRPRPRKSPRP | 0.132
98 | RRIRERPPRLPRPRPRPWNIPRP | -0.308
99 | RRIRVRPPRLPRPRPRPLYWPRP | -0.329
100 | RRIRARPPRLPRPRPRPHIMPRP | -0.277

Row | Sequence | shrunken log2 fold change
101 | RRIRPRPPRLPRPRPRPQDYPRP | -0.0245
102 | RRIRIRPPRLPRPRPRPVWQPRP | 0.536
103 | RRIRDRPPRLPRPRPRPWMVPRP | 0.333
104 | RRIRFRPPRLPRPRPRPWKVPRP | -0.00133
105 | RRIRNRPPRLPRPRPRPNDLPRP | -0.0167
106 | RRIRIRPPRLPRPRPRPHHCPRP | -0.00699
107 | RRIRIRPPRLPRPRPRPVFGPRP | -0.0092
108 | RRIRYRPPRLPRPRPRPIIQPRP | -0.0128
109 | RRIRQRPPRLPRPRPRPVYAPRP | 0.16
110 | RRIRHRPPRLPRPRPRPKAVPRP | -0.00256
111 | RRIRMRPPRLPRPRPRPSSYPRP | 0.236
112 | RRIRCRPPRLPRPRPRPTSHPRP | -0.348
113 | RRIRARPPRLPRPRPRPCCVPRP | 0.559
114 | RRIRWRPPRLPRPRPRPPCLPRP | 0.186
115 | RRIRIRPPRLPRPRPRPATVPRP | -0.319
116 | RRIRERPPRLPRPRPRPNADPRP | -0.0389
117 | RRIRYRPPRLPRPRPRPPIQPRP | -0.589
118 | RRIRSRPPRLPRPRPRPCCAPRP | 0.115
119 | RRIRHRPPRLPRPRPRPMLKPRP | -0.164
120 | RRIRGRPPRLPRPRPRPYCRPRP | -0.237
121 | RRIRDRPPRLPRPRPRPVVYPRP | -0.349
122 | RRIRMRPPRLPRPRPRPRHWPRP | 0.477
123 | RRIRRRPPRLPRPRPRPKYWPRP | 0.00676
124 | RRIRHRPPRLPRPRPRPTPTPRP | 0.138
125 | RRIRQRPPRLPRPRPRPMSFPRP | 0.0381

Row | Sequence | shrunken log2 fold change
126 | RRIRNRPPRLPRPRPRPHLFPRP | -0.0208
127 | RRIRNRPPRLPRPRPRPGWQPRP | 0.116
128 | RRIRHRPPRLPRPRPRPNGDPRP | -0.0512
129 | RRIRSRPPRLPRPRPRPDDYPRP | 0.0211
130 | RRIRKRPPRLPRPRPRPFQTPRP | 0.12
131 | RRIRYRPPRLPRPRPRPWNVPRP | -0.0218
132 | RRIRMRPPRLPRPRPRPKCLPRP | 0.148
133 | RRIRNRPPRLPRPRPRPVDPPRP | 0.0584
134 | RRIRNRPPRLPRPRPRPHKPPRP | -0.368
135 | RRIRRRPPRLPRPRPRPLADPRP | 0.311
136 | RRIRVRPPRLPRPRPRPHHRPRP | 3.34
137 | RRIRVRPPRLPRPRPRPRENPRP | 0.473
138 | RRIRRRPPRLPRPRPRPRAHPRP | 0.592
139 | RRIRKRPPRLPRPRPRPFKHPRP | -0.0024
140 | RRIRYRPPRLPRPRPRPYIIPRP | -0.241
141 | RRIRRRPPRLPRPRPRPFLLPRP | 0.0441
142 | RRIRERPPRLPRPRPRPSFMPRP | -0.546
143 | RRIRCRPPRLPRPRPRPFNDPRP | 0.0223
144 | RRIRERPPRLPRPRPRPEALPRP | 0.0535
145 | RRIRPRPPRLPRPRPRPTQEPRP | 0.617
146 | RRIRFRPPRLPRPRPRPIPCPRP | -0.256
147 | RRIRTRPPRLPRPRPRPFIHPRP | -0.0383
148 | RRIRARPPRLPRPRPRPSELPRP | 0.22
149 | RRIRIRPPRLPRPRPRPVFKPRP | -0.25
150 | RRIRGRPPRLPRPRPRPGCLPRP | 1.01
